The target of assay [1] is VsCoV-a7 RBD-human IgG Fc fusion (VsCoV-a7 (bat MERSr-CoV from Vespertilio sinensis, Japan)). Kind of assay: BLI. In general terms: In BLI a coated tip is dipped into the sample, and binding shifts an interference pattern.
In assay [2] the target is HsItaly2011 RBD-human IgG Fc fusion (HsItaly2011 (bat MERSr-CoV from Hypsugo savii, Italy)). Kind of assay: BLI.

Data on two substances can be found in publication PMC11870458.

As usually defined, the Kd is a measure of binding affinity in units of concentration. Higher therefore signals weaker binding. The substance “soluble dimeric E.fus ACE2 ectodomain (domain or fragment)” registered a Kd in assay [1] of 0.816 µM.

Take “soluble dimeric R.nor ACE2 ectodomain (from UniProt Q5EGZ1 18-740) (domain or fragment)”: the Kd in assay [2] came out at 0.121 µM.
